Data reported in publication PMC3558457.

Molecular target: IL-4 receptor α (IL-4Rα) (UniProt P24394)
Chain of UniProt P24394 (P24394 26-825): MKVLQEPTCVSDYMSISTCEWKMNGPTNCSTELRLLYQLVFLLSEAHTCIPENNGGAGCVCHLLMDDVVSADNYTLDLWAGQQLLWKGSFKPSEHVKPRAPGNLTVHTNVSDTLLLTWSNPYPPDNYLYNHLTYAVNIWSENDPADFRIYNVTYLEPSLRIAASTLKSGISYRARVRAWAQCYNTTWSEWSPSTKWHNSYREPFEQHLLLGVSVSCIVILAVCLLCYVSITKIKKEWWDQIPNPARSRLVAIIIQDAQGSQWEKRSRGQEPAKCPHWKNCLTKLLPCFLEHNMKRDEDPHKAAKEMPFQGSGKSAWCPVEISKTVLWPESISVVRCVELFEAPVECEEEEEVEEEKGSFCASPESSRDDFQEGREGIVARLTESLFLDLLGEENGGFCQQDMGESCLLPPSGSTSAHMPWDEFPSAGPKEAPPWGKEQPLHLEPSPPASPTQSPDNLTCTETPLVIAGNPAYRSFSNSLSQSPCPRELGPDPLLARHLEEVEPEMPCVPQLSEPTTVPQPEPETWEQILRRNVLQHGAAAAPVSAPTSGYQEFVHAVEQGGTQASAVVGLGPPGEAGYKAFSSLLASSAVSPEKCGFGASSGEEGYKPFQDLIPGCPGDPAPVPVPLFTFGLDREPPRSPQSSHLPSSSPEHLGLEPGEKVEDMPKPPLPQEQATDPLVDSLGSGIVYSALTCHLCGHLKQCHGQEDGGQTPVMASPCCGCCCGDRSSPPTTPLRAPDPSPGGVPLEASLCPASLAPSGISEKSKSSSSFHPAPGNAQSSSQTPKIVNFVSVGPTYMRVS

Wildtype human IL-4 (from UniProt P05112 25-153) (ligand)
TF-1 cell proliferation, dose dependency for wild-type human IL-4 (EC50): 10 to 20 pM
